{
  "source": "patent US8383581B2",
  "about": "“Short-chain peptides as parathyroid hormone (PTH) receptor agonist” (Cadila Healthcare Limited, priority 2009, dated 2013)",
  "note": "Where no end group is shown, it is not given here. [ ]: non-standard residue; d: D form. αMePhe(2,6-F2) = C[C@](N)(Cc1c(F)cccc1F)C(=O)O; αMePhe(2-F) = C[C@](N)(Cc1ccccc1F)C(=O)O; hArg = N=C(N)NCCCC[C@H](N)C(=O)O; αMeF = C[C@](N)(Cc1ccccc1)C(=O)O; Cit = NC(=O)NCCC[C@H](N)C(=O)O; αMeP = C[C@@]1(C(=O)O)CCCN1; Nle = CCCC[C@H](N)C(=O)O; Ac5c = NC1(C(=O)O)CCCC1; Ac3c = NC1(C(=O)O)CC1; Aib = CC(C)(N)C(=O)O",
  "data": [
    {"molecular_target": "T1, rat PTH-1R (rat PTHR endogenously expressed on UMR-106 rat osteosarcoma cells) (rat, UniProt P25961 27-591)", "T1 sequence (looked up)": "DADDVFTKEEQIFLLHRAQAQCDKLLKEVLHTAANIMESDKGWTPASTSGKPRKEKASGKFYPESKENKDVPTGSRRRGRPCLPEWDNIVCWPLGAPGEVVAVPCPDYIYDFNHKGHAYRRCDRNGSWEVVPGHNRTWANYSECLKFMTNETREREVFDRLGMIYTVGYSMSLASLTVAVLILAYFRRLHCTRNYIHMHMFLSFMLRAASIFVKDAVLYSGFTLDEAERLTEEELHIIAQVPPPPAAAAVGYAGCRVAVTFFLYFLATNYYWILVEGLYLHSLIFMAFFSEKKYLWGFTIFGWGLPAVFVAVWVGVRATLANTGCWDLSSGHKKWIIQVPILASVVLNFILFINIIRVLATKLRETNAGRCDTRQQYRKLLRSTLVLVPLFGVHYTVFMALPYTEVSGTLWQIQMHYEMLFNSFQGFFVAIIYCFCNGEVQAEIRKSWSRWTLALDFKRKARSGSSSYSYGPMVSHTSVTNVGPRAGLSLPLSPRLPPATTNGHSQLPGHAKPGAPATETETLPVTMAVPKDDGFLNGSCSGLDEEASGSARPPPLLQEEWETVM", "assay": "cell-based or functional assay", "values": [
      {"binder": "[Ac3c]V[Aib]EIQ[αMePhe(2-F)][Nle]HQ[hArg][αMeP]K[αMePhe(2-F)]", "note": "[Seq. ID. 59]", "cAMP released with respect to control, 1 nM peptide, UMR-106 cells": "19 percent of control", "cAMP released with respect to control, 10 nM peptide, UMR-106 cells": "66 percent of control", "cAMP released with respect to control, 100 nM peptide, UMR-106 cells": "84 percent of control"},
      {"binder": "[Ac5c]V[Ac5c]EIQ[αMePhe(2-F)][Nle]HQ[hArg][αMeP]K[αMePhe(2-F)]", "note": "[Seq. ID. 65]", "cAMP released with respect to control, 1 nM peptide, UMR-106 cells": "34 percent of control", "cAMP released with respect to control, 10 nM peptide, UMR-106 cells": "82 percent of control", "cAMP released with respect to control, 100 nM peptide, UMR-106 cells": "104 percent of control"},
      {"binder": "[Aib]V[Ac5c]EIQ[αMePhe(2,6-F2)][Nle]HQ[hArg][αMeP]K[αMePhe(2-F)]", "note": "[Seq. ID. 78]", "cAMP released with respect to control, 1 nM peptide, UMR-106 cells": "23 percent of control", "cAMP released with respect to control, 10 nM peptide, UMR-106 cells": "73 percent of control", "cAMP released with respect to control, 100 nM peptide, UMR-106 cells": "93 percent of control"},
      {"binder": "[Aib]V[Aib]EIQ[αMePhe(2-F)][Nle]HQ[hArg][αMeP]K[αMePhe(2,6-F2)]", "note": "[Seq. ID. 91]", "cAMP released with respect to control, 1 nM peptide, UMR-106 cells": "42 percent of control", "cAMP released with respect to control, 10 nM peptide, UMR-106 cells": "101 percent of control", "cAMP released with respect to control, 100 nM peptide, UMR-106 cells": "110 percent of control"},
      {"binder": "[Ac3c]V[Aib]EIQ[αMePhe(2,6-F2)][Nle]HQ[hArg][αMeP]K[αMePhe(2,6-F2)]", "note": "[Seq. ID. 110]", "cAMP released with respect to control, 1 nM peptide, UMR-106 cells": "12 percent of control", "cAMP released with respect to control, 10 nM peptide, UMR-106 cells": "39 percent of control", "cAMP released with respect to control, 100 nM peptide, UMR-106 cells": "72 percent of control"},
      {"binder": "[Aib]V[Aib]EIQLMHQ[hArg][Aib]K[αMeF]", "note": "[Seq. ID. 9]", "cAMP released with respect to control, 1 nM peptide, UMR-106 cells": "16 percent of control", "cAMP released with respect to control, 10 nM peptide, UMR-106 cells": "41 percent of control", "cAMP released with respect to control, 100 nM peptide, UMR-106 cells": "52 percent of control"},
      {"binder": "[Aib]V[Aib]EIQ[αMePhe(2,6-F2)][Nle]HQ[hArg][Aib][Cit][αMePhe(2-F)]", "note": "[Seq. ID. 132]", "cAMP released with respect to control, 1 nM peptide, UMR-106 cells": "29 percent of control", "cAMP released with respect to control, 10 nM peptide, UMR-106 cells": "82 percent of control", "cAMP released with respect to control, 100 nM peptide, UMR-106 cells": "101 percent of control"},
      {"binder": "[Aib]V[Ac5c]EIQ[αMePhe(2,6-F2)][Nle]HQ[hArg][Aib][Cit][αMePhe(2,6-F2)]", "note": "[Seq. ID. 156]", "cAMP released with respect to control, 1 nM peptide, UMR-106 cells": "31 percent of control", "cAMP released with respect to control, 10 nM peptide, UMR-106 cells": "89 percent of control", "cAMP released with respect to control, 100 nM peptide, UMR-106 cells": "106 percent of control"},
      {"binder": "[Ac3c]V[Aib]EIQ[αMePhe(2,6-F2)][Nle]HQ[hArg][Aib][Aib][αMePhe(2-F)]", "note": "[Seq. ID. 174]", "cAMP released with respect to control, 1 nM peptide, UMR-106 cells": "31 percent of control", "cAMP released with respect to control, 10 nM peptide, UMR-106 cells": "72 percent of control", "cAMP released with respect to control, 100 nM peptide, UMR-106 cells": "100 percent of control"},
      {"binder": "[Ac5c]V[Ac5c]EIQ[αMePhe(2,6-F2)][Nle]HQ[hArg][Aib][Aib][αMePhe(2,6-F2)]", "note": "[Seq. ID. 198]", "cAMP released with respect to control, 1 nM peptide, UMR-106 cells": "32 percent of control", "cAMP released with respect to control, 10 nM peptide, UMR-106 cells": "71 percent of control", "cAMP released with respect to control, 100 nM peptide, UMR-106 cells": "99 percent of control"},
      {"binder": "[Aib]V[Aib]EIQ[αMePhe(2,6-F2)][Nle]HQ[hArg][Aib][αMePhe(2,6-F2)][αMePhe(2-F)]", "note": "[Seq. ID. 212]", "cAMP released with respect to control, 1 nM peptide, UMR-106 cells": "34 percent of control", "cAMP released with respect to control, 10 nM peptide, UMR-106 cells": "88 percent of control", "cAMP released with respect to control, 100 nM peptide, UMR-106 cells": "116 percent of control"},
      {"binder": "[Ac5c]V[Ac5c]EIQ[αMePhe(2,6-F2)][Nle]HQ[hArg][Aib][αMePhe(2,6-F2)][αMePhe(2,6-F2)]", "note": "[Seq. ID. 238]", "cAMP released with respect to control, 1 nM peptide, UMR-106 cells": "38 percent of control", "cAMP released with respect to control, 10 nM peptide, UMR-106 cells": "91 percent of control", "cAMP released with respect to control, 100 nM peptide, UMR-106 cells": "120 percent of control"}
    ]}
  ]
}
